Legend:
[1] = molecular target: ICP27Δ215 (HSV-1 ICP27 residues 215-512) (Herpes simplex virus 1 (HSV-1)) (UniProt P10238); experiment: AUC; sedimentation velocity, 1 mg/mL in 20 mM HEPES pH 7.4, 150 mM NaCl, 40000 RPM, 20 °C
[2] = molecular target: ICP27Δ215 (HSV-1 ICP27 residues 215-512) (Herpes simplex virus 1 (HSV-1)) (UniProt P10238); experiment: SEC-MALS; 0.5 mL at 1 mg/mL on Superdex 200 10/300GL, 0.75 mL/min in gel filtration buffer (20 mM Tris, 150 mM NaCl, 50 mM L-Arg, 50 mM L-Glu, 50 mM L-Pro, 0.1 mM TCEP, 10 μM ZnCl2, pH 8.5)
[3] = molecular target: ICP27Δ189 (HSV-1 ICP27 residues 189-512) (Herpes simplex virus 1 (HSV-1)) (UniProt P10238); experiment: AUC; sedimentation velocity, 1 mg/mL in 20 mM HEPES pH 7.4, 150 mM NaCl, 40000 RPM, 20 °C
[4] = molecular target: ICP27Δ189 (HSV-1 ICP27 residues 189-512) (Herpes simplex virus 1 (HSV-1)) (UniProt P10238); experiment: SEC-MALS; 0.5 mL at 1 mg/mL on Superdex 200 10/300GL, 0.75 mL/min in gel filtration buffer (20 mM Tris, 150 mM NaCl, 50 mM L-Arg, 50 mM L-Glu, 50 mM L-Pro, 0.1 mM TCEP, 10 μM ZnCl2, pH 8.5)
[5] = molecular target: ICP27Δ241 (HSV-1 ICP27 C-terminal residues 241-512) (Herpes simplex virus 1 (HSV-1)) (UniProt P10238); experiment: AUC; sedimentation velocity, 1 mg/mL in 20 mM HEPES pH 7.4, 150 mM NaCl, 40000 RPM, 20 °C
[6] = molecular target: ICP27Δ241 (HSV-1 ICP27 C-terminal residues 241-512) (Herpes simplex virus 1 (HSV-1)) (UniProt P10238); experiment: SEC-MALS; 0.5 mL at 1 mg/mL on Superdex 200 10/300GL, 0.75 mL/min in gel filtration buffer (20 mM Tris, 150 mM NaCl, 50 mM L-Arg, 50 mM L-Glu, 50 mM L-Pro, 0.1 mM TCEP, 10 μM ZnCl2, pH 8.5)

ICP27Δ215 (HSV-1 ICP27 residues 215-512) (from UniProt P10238 215-512) (domain or fragment)
stoichiometry N [1]: 2 | stoichiometry N [2]: 2

ICP27Δ189 (HSV-1 ICP27 residues 189-512) (from UniProt P10238 189-512) (domain or fragment)
stoichiometry N [3]: 2 | stoichiometry N [4]: 2

ICP27Δ241 (HSV-1 ICP27 C-terminal residues 241-512) (from UniProt P10238 241-512) (domain or fragment)
stoichiometry N [5]: 2 | stoichiometry N [6]: 2

Reference: publication PMC4650695
